This note sets out measurements from patent US20160002325A1 (VACCINEX, published 2016).

Test [1] concerns the target T1, human CXCL13 15-mer peptide YTSLRCRCVQESSVF (human).
T1 peptide: YTSLRCRCVQESSVF
Description: ProArray Ultra peptide microarray of 15-mer human CXCL13 peptides, fluorescent secondary antibody. As for the experimental part:
In this project, the determination of peptide-antibody binding was performed by incubation of serum samples with a ProArray Ultra™ peptide microarray. This peptide array was generated as 15-mer peptides overlapping by 10 amino acids from the human CXCL13 primary sequence. The CXCL13 array contained sixteen unique peptides. […] After several washing steps the ProArray Ultra™ arrays were dried and scanned using a high-resolution fluorescence microarray scanning system.

The next test has as its target T2, cynomolgus monkey CXCL13 (cynomolgus monkey, UniProt O43927 23-104 (human entry), limits assumed).
T2 construct: Recombinant; also called recombinant cynomolgus monkey CXCL13
T2 chain: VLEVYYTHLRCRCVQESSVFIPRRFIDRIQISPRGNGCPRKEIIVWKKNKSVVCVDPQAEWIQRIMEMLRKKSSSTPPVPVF
Kind of test: Specificity ELISA on recombinant cynomolgus monkey CXCL13 coated at 100 nM, OD 450/570, four-parameter sigmoidal fit. On the technique in general: In an ELISA, binding on a coated surface is turned into a signal by an enzyme label.

Test [2] deals with T3, human CXCL13 (human, UniProt O43927 23-109).
T3 construct: Recombinant protein bought from Peprotech (#300-47); In some assays native human CXCL13 from supernatant of IFN-gamma-stimulated THP-1 cells was used; this is said in the assay field; also called recombinant human CXCL13; rhuCXCL13
T3 sequence: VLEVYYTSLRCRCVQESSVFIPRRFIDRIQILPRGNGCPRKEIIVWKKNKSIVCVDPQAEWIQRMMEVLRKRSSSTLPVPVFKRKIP
Kind of test: Specificity ELISA on recombinant human CXCL13 coated at 100 nM, OD 450/570, four-parameter sigmoidal fit.

The target in test [3] is T3, human CXCL13. Kind of test: SPR (Biacore), recombinant human CXCL13; printed as Affinity (Biacore), nM. In general terms: In SPR one partner is held on a chip, and binding of the other changes the refractive index at the surface.
Test [4] concerns the target T3, human CXCL13. Description: SPR (BIACORE), recombinant human CXCL13, methods similar to Example 1; printed as Affinity, nM. As for the experimental part:
(§1) Chemokines were immobilized on a C1 chip in Acetate buffer (pH=5) with human CXCL13 at 1 μg/ml, mouse CXCL13 at 0.3 μg/ml, and negative control SDF-1α at 0.5 μg/ml. 3D2 and 3C9 were diluted in HBS-EP buffer by two-fold from 100 nM to 0.78 nM and from 38 nM to […].

The target of test [5] is T4, mouse CXCL13 (mouse, UniProt O55038 22-109).
T4 construct: Recombinant protein bought from Peprotech (#250-24); In some assays native mouse CXCL13 from organ extracts of TNF-alpha transgenic mice was used; this is said in the assay field; also called recombinant mouse CXCL13; rmuCXCL13
T4 sequence: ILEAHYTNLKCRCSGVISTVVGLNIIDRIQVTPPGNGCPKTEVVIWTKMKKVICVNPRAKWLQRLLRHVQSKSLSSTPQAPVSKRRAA
Kind of test: SPR (BIACORE), recombinant mouse CXCL13, methods similar to Example 1; printed as Affinity, nM. The procedure:
as §1

Test [6] addresses T4, mouse CXCL13. Description: SPR (Biacore), recombinant mouse CXCL13; printed as Affinity (Biacore), nM.
In test [7] the target is T4, mouse CXCL13. Kind of test: Specificity ELISA on recombinant mouse CXCL13 coated at 100 nM, OD 450/570, four-parameter sigmoidal fit. As for the experimental part:
For specificity ELISA, recombinant human, cynomolgus monkey, and mouse CXCL13 were each coated at 100 nM. […] The data points for each chemokine represents the mean of triplicate measurements. EC50 values were calculated from four-parameter sigmoidal curve fit (R² for the curves that produced EC50 values were 0.99).

Test [8] deals with T4, mouse CXCL13. Kind of test: Capture Epitope Competition ELISA: native mouse CXCL13 captured with MAb 470; unlabeled competitor inhibits binding of 3.3 nM biotin-3D2; four-parameter fit. The procedure: For mouse ELISA, mouse CXCL13 (1:40 dilution of TNF-Tg organ extract) was captured with 33 nM MAb 470 and detected with 3.3 nM biotin-3D2. Each data point represents an average of duplicate measurements from one of at least three independent experiments. […] Curves shown in FIGS. 17A-B were fitted using four-parameter sigmoidal curve fit (R²=0.99).

B1: MAb 5261 (antibody, V domains shown)
VH: QVQLQESGPGLVKPSETLSLTCTVSGFSLSTFGMGVGWIRQPPGKGLEWIAHIWWDDDRRYNPALKSRVTISKDTSKNQFSLKLSSVTAADTAVYYCARIAGYYGSRDWFAYWGQGTTVTVSS
VL: DIQMTQSPSSLSASVGDRVTITCRASESVDNMGISFMHWYQQKPGKAPKLLIFRASDLESGVPSRFSGSGSGTDFTLTISSLQPEDFATYYCQQSNKDPWTFGQGTKLEIK
notes: Humanized
B1: in test [1], the binding result is on record as “binds”. Moreover, the EC50 came out at 0.04 nM with cynomolgus monkey CXCL13, 0.03 nM with human CXCL13 [2], 0.09 nM with mouse CXCL13 [7] and 6 nM in the test with mouse CXCL13 [8]. Besides, the Kd was determined as 5.1 nM in the test with human CXCL13 [3], 5.1 nM with human CXCL13 [4], 8.1 nM in the test with mouse CXCL13 [5] and 8.1 nM with mouse CXCL13 [6].

By EC50 is commonly meant the concentration at which the effect is half-maximal. As usually defined, the Kd is the concentration at which binding is half-saturated.
